The values that follow come from the RNAGym collection of RNA variant scans (doi:10.1021/acssynbio.7b00057).

First the molecules themselves.
B1: Pistol ribozyme (parent)
chain: GGGUCGUUGUUCCAUAAUCGCGUGGAUAUGGCACGCAAGUUUCUACCGGGCACCGUAAAUGUCCGACUGGAGCCGUUCGGGCGGCUAUAAACAGACCUCAGGCCCGAAGCGUGGCGGCACCUGCCGCCGGUGGUAAAAAAGAUCGGAAGAGCACACGUCU

This data set covers variants of B1. Put plainly: aptazyme ON/OFF ratio, guanine; higher = stronger switching; co-transcriptional cleavage with and without guanine.
On to U8C G9A U10A U11C C12A, for which the “aptazyme ON/OFF ratio” value was found to be 1.25.
With U8C G9A U10A U11C C12U the figure was 1.09; with U8C G9A U10A U11C C12G, 1.29; with U8A U10C U11C C13U, 1.02.
On to U8A U10C U11C C13G, for which the “aptazyme ON/OFF ratio” value came to 1.04.
With U8A U10C U11C C13A the figure was 1.01; with U8C G9A U10A U11G C12G C13G, 1.17; with U8C G9A U10A U11G C12G C13U, 1.14.
To U8C G9A U10A U11G C12G C13A belongs 1.16.
To U8A U10A U11G C12A belongs 1.12; to U8A U10A U11G C12U, 1.52; to U8A U10A U11G C12G, 1.36.
In the case of U8C G9A C12G C13A, the “aptazyme ON/OFF ratio” value worked out at 1.23.
With U8C G9A C12G C13G the figure was 1.27.
To U8C G9A C12G C13U belongs 1.26; to U8C C12A C13A, 1.24; to U8C C12A C13U, 1.21.
With U8C C12A C13G the figure was 1.1; with U8A U10G U11A C12G C13U, 1.15; with U8A U10G U11A C12G C13G, 1.51.
In the case of U8A U10G U11A C12G C13A, the “aptazyme ON/OFF ratio” value is 1.2.
With U8A U10A U11A C12G C13U the figure was 1.13.
Regarding U8A U10A U11A C12G C13A, the “aptazyme ON/OFF ratio” value turned out to be 1.12.
To U8A U10A U11A C12G C13G belongs 1.18; to U8C G9A U10C C12U C13A, 1.29; to U8C G9A U10C C12U C13G, 1.26.
To U8C G9A U10C C12U C13U belongs 1.21.
With U8A U10A U11G C12U C13U the figure was 1.4; with U8A U10A U11G C12U C13G, 1.45; with U8A U10A U11G C12U C13A, 1.2.
As for U8A U10A U11G, the “aptazyme ON/OFF ratio” value is 1.17.
With U8A U10A U11C the figure was 1.
To U8A U10G U11G C12G belongs 1.23; to U8A U10G U11G C12U, 1.48; to U8A U10G U11G C12A, 1.11.
To U8C G9A C13A belongs 1.22; to U8C G9A C13G, 1.07.
Consider U8C G9A C13U, for which the “aptazyme ON/OFF ratio” value turned out to be 1.43.
As to U8A U10C U11G C12U C13A, the “aptazyme ON/OFF ratio” value worked out at 1.26.
To U8A U10C U11G C12U C13G belongs 1.2; to U8A U10C U11G C12U C13U, 1.27.
Consider U8C G9A U10A U11G C12A C13U, for which the “aptazyme ON/OFF ratio” value was 1.11.
With U8C G9A U10A U11G C12A C13A the figure was 1.1.
To U8C G9A U10A U11G C12A C13G belongs 1.17; to U8A U10C U11G C12A C13G, 1.23.
To U8A U10C U11G C12A C13A belongs 1.26; to U8A U10C U11G C12A C13U, 1.25; to U8A U11A C13U, 1.15.
Consider U8A U11A C13A, for which the “aptazyme ON/OFF ratio” value is 1.19.
As for U8A U11A C13G, the “aptazyme ON/OFF ratio” value is 1.05.
To U8A U11C belongs 1.12.
To U8A U11A belongs 1.14.
Regarding U8A U11G, the “aptazyme ON/OFF ratio” value turned out to be 1.25.
With U8C G9A U10A C12G C13U the figure was 1.31; with U8C G9A U10A C12G C13A, 1.14.
On to U8C G9A U10A C12G C13G, for which the “aptazyme ON/OFF ratio” value is 1.18.
Consider U8C G9A U10A C12U, for which the “aptazyme ON/OFF ratio” value came to 1.31.
To U8C G9A U10A C12G belongs 1.29.
With U8C G9A U10A C12A the figure was 1.22.
With U8A U11G C12A the figure was 1.09; with U8A U11G C12G, 1.18.
As for U8A U11G C12U, the “aptazyme ON/OFF ratio” value stood at 1.28.
With U8C G9A U10C C13G the figure was 1.1; with U8C G9A U10C C13A, 1.06.
With U8A U10C C13G the figure was 1.05; with U8A U10C C13U, 1.19.
Regarding U8A U10C C13A, the “aptazyme ON/OFF ratio” value came out at 1.05.
To U8C C12G belongs 1.38; to U8C C12A, 1.52.
To U8C C12U belongs 1.49.
U8A U11G C12A C13A: the “aptazyme ON/OFF ratio” value stood at 1.15.
With U8A U11G C12A C13G the figure was 1.17; with U8A U11G C12A C13U, 1.2; with U8A U10C U11C C12G, 1.27.
Regarding U8A U10C U11C C12A, the “aptazyme ON/OFF ratio” value came to 1.08.
To U8A U10C U11C C12U belongs 1.06.
To U8A U10G C12G C13U belongs 1.34.
To U8A U10G C12G C13G belongs 1.12; to U8A U10G C12G C13A, 1.37; to U8C G9A U10C C12G C13G, 1.4.
In the case of U8C G9A U10C C12G C13U, the “aptazyme ON/OFF ratio” value came out at 1.25.
To U8C G9A U10C C12G C13A belongs 1.18; to U8A U10A U11A C13G, 1.16; to U8A U10A U11A C13U, 1.06.
To U8A U10A U11A C13A belongs 1.12; to U8A U10C C12G C13G, 1.45.
With U8A U10C C12G C13U the figure was 1.44; with U8A U10C C12G C13A, 1.19.
Consider U8C G9A U10A U11C C12G C13A, for which the “aptazyme ON/OFF ratio” value was determined as 1.21.
To U8C G9A U10A U11C C12G C13G belongs 1.35.
To U8C G9A U10A U11C C12G C13U belongs 1.3; to U8A U10C U11A C12A C13G, 1.1; to U8A U10C U11A C12A C13U, 1.3.
To U8A U10C U11A C12A C13A belongs 1.21.
With U8A U10G U11C C12G C13A, the “aptazyme ON/OFF ratio” value is 1.41.
Regarding U8A U10G U11C C12G C13U, the “aptazyme ON/OFF ratio” value is 1.38.
To U8A U10G U11C C12G C13G belongs 1.25; to U8C G9A U10A U11C C13G, 1.04; to U8C G9A U10A U11C C13A, 1.05.
Turning to U8C G9A U10A U11C C13U, the “aptazyme ON/OFF ratio” value came out at 1.06.
To U8A U10A U11C C12A C13G belongs 1.06; to U8A U10A U11C C12A C13A, 1.08.
On to U8A U10A U11C C12A C13U, for which the “aptazyme ON/OFF ratio” value turned out to be 1.19.
With U8A U10C U11A C12U the figure was 1.2; with U8A U10C U11A C12A, 1.13; with U8A U10C U11A C12G, 1.19.
Take U8C G9A U10A C12A C13A: the “aptazyme ON/OFF ratio” value was 1.17.
With U8C G9A U10A C12A C13U the figure was 1.31.
To U8C G9A U10A C12A C13G belongs 1.13; to U8A U10A U11C C12G C13G, 1.27; to U8A U10A U11C C12G C13U, 1.16.
For U8A U10A U11C C12G C13A, the “aptazyme ON/OFF ratio” value was found to be 1.1.
U8A U10A U11G C12A C13G: the “aptazyme ON/OFF ratio” value was found to be 1.3.
To U8A U10A U11G C12A C13A belongs 1.13; to U8A U10A U11G C12A C13U, 1.07; to U8C C12U C13G, 1.39.
To U8C C12U C13U belongs 1.28.
With U8C C12U C13A the figure was 1.26; with U8A U10G C13U, 1.18; with U8A U10G C13A, 1.52.
As to U8A U10G C13G, the “aptazyme ON/OFF ratio” value was found to be 1.23.
With U8C G9A U10A U11A C12U the figure was 1.35; with U8C G9A U10A U11A C12G, 1.32; with U8C G9A U10A U11A C12A, 1.3.
To U8A U11C C12A belongs 1.29; to U8A U11C C12G, 1.51; to U8A U11C C12U, 1.54.
With U8C G9A U10C C12G the figure was 1.24; with U8C G9A U10C C12U, 1.95; with U8C G9A U10C C12A, 1.35.
For U8A U11A C12G C13A, the “aptazyme ON/OFF ratio” value was 1.18.
With U8A U11A C12G C13G the figure was 1.06.
To U8A U11A C12G C13U belongs 1.17.
With U8A U10A U11C C12U C13A the figure was 1.08; with U8A U10A U11C C12U C13G, 1.09; with U8A U10A U11C C12U C13U, 1.06.
U8A U10G U11A C12U C13A: the “aptazyme ON/OFF ratio” value stood at 1.42.
With U8A U10G U11A C12U C13U the figure was 1.31.
To U8A U10G U11A C12U C13G belongs 1.35; to U8C G9A C12U C13A, 1.17; to U8C G9A C12U C13U, 1.25.
With U8C G9A C12U C13G the figure was 1.19; with U8C G9A C12A C13A, 1.33; with U8C G9A C12A C13U, 1.17.
As to U8C G9A C12A C13G, the “aptazyme ON/OFF ratio” value was found to be 1.14.
With U8A U10C U11C C12A C13G the figure was 1.14; with U8A U10C U11C C12A C13A, 1.18.
To U8A U10C U11C C12A C13U belongs 1.07.
Regarding U8A U10C U11G C13G, the “aptazyme ON/OFF ratio” value came out at 1.13.
To U8A U10C U11G C13A belongs 1.21; to U8A U10C U11G C13U, 1.19; to U8A U10A U11C C13U, 1.04.
To U8A U10A U11C C13G belongs 1.02; to U8A U10A U11C C13A, 1.03.
With U8A U10G U11C C13G the figure was 1.11.
In the case of U8A U10G U11C C13A, the “aptazyme ON/OFF ratio” value worked out at 1.06.
With U8A U10G U11C C13U the figure was 1.04; with U8A U10G C12A C13G, 1.09; with U8A U10G C12A C13A, 1.23.
To U8A U10G C12A C13U belongs 1.23; to U8A U11G C13U, 1.04; to U8A U11G C13G, 1.04.
To U8A U11G C13A belongs 1.03; to U8A U10G U11G C12U C13A, 1.15.
For the variant U8A U10G U11G C12U C13G, the “aptazyme ON/OFF ratio” value is 1.28.
To U8A U10G U11G C12U C13U belongs 1.43; to U8A U10C U11C C12U C13U, 1.04.
